Measurements as given in US7429481.
Where two headings read alike, the source gives them in different places.

Experiments:
[1] = target: human Her2/neu receptor (human) (UniProt P04626); test: flow cytometry, SKBR3 cells stained with Herceptin
[2] = target: human Her2/neu receptor (human) (UniProt P04626)

Herceptin, the humanized form of 4D5 (antibody)
mean fluorescence [1]: 401 | mean fluorescence [2]: 186
